How the values were obtained:
[1] = target: the molecule itself; assay: crystal structure; Δ25 crystals grown at high pH (Tris pH 8.5) with BaCl2, soaked in 50 mM BaCl2 or 150 mM NaBr; space group P212121; resting state; anomalous diffraction
[2] = target: the molecule itself; assay: crystal structure; Δ13 crystals grown at 20°C, HEPES pH 6.9, sodium formate, PEG 3,350, soaked in 50 mM BaCl2; space group H3; desensitized state; anomalous diffraction

Row | Protein | binding result [1] | binding result [2]
1 | chicken ASIC1a Δ25 crystallization construct (residues 25-463 of chicken ASIC1) (domain or fragment, UniProt Q1XA76 25-463, looked up, chicken ASIC1 (acid sensing ion channel 1a), residues 25-463; 24 residues removed from the amino-terminus and 64 from the carboxy-terminus; Homotrimeric channel; three subunits around a molecular 3-fold axis in the P212121 crystals; also called resting channel; cASIC1a) SSTLHGISHIFSYERLSLKRVVWALCFMGSLALLALVCTNRIQYYFLYPHVTKLDEVAATRLTFPAVTFCNLNEFRFSRVTKNDLYHAGELLALLNNRYEIPDTQTADEKQLEILQDKANFRNFKPKPFNMLEFYDRAGHDIREMLLSCFFRGEQCSPEDFKVVFTRYGKCYTFNAGQDGKPRLITMKGGTGNGLEIMLDIQQDEYLPVWGETDETSFEAGIKVQIHSQDEPPLIDQLGFGVAPGFQTFVSCQEQRLIYLPPPWGDCKATTGDSEFYDTYSITACRIDCETRYLVENCNCRMVHMPGDAPYCTPEQYKECADPALDFLVEKDNEYCVCEMPCNVTRYGKELSMVKIPSKASAKYLAKKYNKSEQYIGENILVLDIFFEALNYETIEQKKAYEVAGLLGDIGGQMGLFIGASILTVLELFDYAYEVIKHR | binds | –
2 | chicken ASIC1a Δ13 crystallization construct (residues 14-463 of chicken ASIC1) (domain or fragment, UniProt Q1XA76 14-463, looked up, chicken ASIC1 (acid sensing ion channel 1a), residues 14-463; 13 residues removed from the amino-terminus and 64 from the carboxy-terminus; Homotrimeric channel; crystals in space group H3; also called desensitized channel; cASIC1a) GQPVSIQAFASSSTLHGISHIFSYERLSLKRVVWALCFMGSLALLALVCTNRIQYYFLYPHVTKLDEVAATRLTFPAVTFCNLNEFRFSRVTKNDLYHAGELLALLNNRYEIPDTQTADEKQLEILQDKANFRNFKPKPFNMLEFYDRAGHDIREMLLSCFFRGEQCSPEDFKVVFTRYGKCYTFNAGQDGKPRLITMKGGTGNGLEIMLDIQQDEYLPVWGETDETSFEAGIKVQIHSQDEPPLIDQLGFGVAPGFQTFVSCQEQRLIYLPPPWGDCKATTGDSEFYDTYSITACRIDCETRYLVENCNCRMVHMPGDAPYCTPEQYKECADPALDFLVEKDNEYCVCEMPCNVTRYGKELSMVKIPSKASAKYLAKKYNKSEQYIGENILVLDIFFEALNYETIEQKKAYEVAGLLGDIGGQMGLFIGASILTVLELFDYAYEVIKHR | – | binds
